Experimental data reported in patent US20260242478A1 (published 2026).
Where no end group is shown, it is not given here.

Legend:
[1] = molecular target: T1, Anti-CD28 Fab (SEQ ID NOs: 696, 697); experiment: phage binding ELISA; Fab-coated wells pre-incubated with CD28 antigen as competitor, phage detected with anti-M13 HRP
T1 construct: In the phage ELISA the Fab was biotinylated and captured on neutravidin coated plates
T1 sequence (VH, as listed by the source, chain 1 of 2): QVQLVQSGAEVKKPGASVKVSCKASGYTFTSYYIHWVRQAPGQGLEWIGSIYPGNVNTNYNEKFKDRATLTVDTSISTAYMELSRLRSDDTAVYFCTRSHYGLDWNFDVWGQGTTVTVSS
T1 sequence (VL, as listed by the source, chain 2 of 2): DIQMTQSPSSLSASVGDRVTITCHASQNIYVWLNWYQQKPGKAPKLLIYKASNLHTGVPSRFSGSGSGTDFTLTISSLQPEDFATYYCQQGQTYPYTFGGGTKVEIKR
Protocol: (§1) After panning, phage infected bacteria were plated out and colonies picked into 96 well blocks. Clonal phage was then amplified and separated from bacterial cells via centrifugation.
(§2) Clonal phage were harvested as crude supematants and screened via standard ELISAs. […] Prior to the addition of clonal phage, wells were incubated with blocking buffer and CD28 antigen or blocking buffer alone. Without washing or aspirating, clonal phage supematants were then added to the wells and incubated for a short time. Wells were then washed followed by detection of bound phage using a horse radish conjugated anti-M13 antibody. Clonal phage of interest were then sent for sequence analysis.

[2] = molecular target: T1, Anti-CD28 Fab (SEQ ID NOs: 696, 697); experiment: phage binding ELISA; biotinylated anti-CD28 Fab on neutravidin plate, clonal phage detected with anti-M13 HRP
Protocol: as §1, §2

[3] = molecular target: T2, Anti-CD28 Fab (SEQ ID NOs: 696, 697); experiment: phage ELISA; biotinylated anti-CD28 Fab on neutravidin plate, clonal phage supernatant, anti-M13 HRP detection;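 also: crude supernatants of single phage clones picked after panning were screened for binding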
T2 construct: In the phage ELISA the Fab was biotinylated and captured on neutravidin coated plates
T2 sequence (VH, as listed by the source, chain 1 of 2): as the sequence (VH, as listed by the source, chain 1 of 2) above
T2 sequence (VL, as listed by the source, chain 2 of 2): as the sequence (VL, as listed by the source, chain 2 of 2) above

[4] = molecular target: T2, Anti-CD28 Fab (SEQ ID NOs: 696, 697); experiment: phage ELISA; captured anti-CD28 Fab pre-incubated with CD28 antigen as competitor, anti-M13 HRP detection;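 also: crude clonal phage supernatants screened by ELISA, with wells pre-incubated with CD28 antigen in blocking buffer, compared against wells given blocking buffer alone as control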
Protocol: as §1, §2

Row | Binder | Anti-CD28 Fab signal in the presence of CD28 (phage binding ELISA) [1] | Anti-CD28 Fab signal (phage binding ELISA) [2] | Anti-CD28 Fab signal (phage binding ELISA) [3] | Anti-CD28 Fab signal in the presence of CD28 (phage binding ELISA) [4]
1 | YCEGHSQLYMAKCL (cysteine pairing not given here; also: displayed as fusion to phage pIII, linker not given here) [Phage-1080] | 0.07 | 1.37 | – | –
2 | YCDGHSAEYIAKCL (Tested as clonal phage supernatant; not shown: pIII coat protein of the bacteriophage to which the peptide is fused) [Phage-1112 (Peptide-87 library clone, SEQ ID NO: 1428)] | – | – | 1.31 | 0.05
3 | YCEGHLPAYMWKCL (Tested as clonal phage supernatant; not shown: pIII coat protein of the bacteriophage to which the peptide is fused) [Phage-1109 (Peptide-87 library clone, SEQ ID NO: 1425)] | – | – | 1.31 | 0.08
4 | YCDGHLQEYMQKCL (cysteine pairing not given here; also: displayed as fusion to phage pIII, linker not given here) [Phage-1077] | 0.06 | 1.38 | – | –
5 | YCDGHMKEYMLKCL (cysteine pairing not given here; also: displayed as fusion to phage pIII, linker not given here) [Phage-1085] | 0.06 | 1.36 | – | –
6 | YCSEHQIIFIQKCL (Tested as clonal phage supernatant; not shown: pIII coat protein of the bacteriophage to which the peptide is fused) [Phage-1104 (Peptide-87 library clone, SEQ ID NO: 1420)] | – | – | 1.32 | 0.08
7 | YCEGHLPAYMGKCI (cysteine pairing not given here; also: displayed as fusion to phage pIII, linker not given here) [Phage-1082] | 0.09 | 1.37 | – | –
8 | YCDGHAPEYIQKCL (cysteine pairing not given here; also: displayed as fusion to phage pIII, linker not given here) [Phage-1075] | 0.06 | 1.38 | – | –
9 | YCDGHLALYMWKCL (cysteine pairing not given here; also: displayed as fusion to phage pIII, linker not given here) [Phage-1087] | 0.17 | 1.36 | – | –
10 | YCAGHTSEYMSKCL (cysteine pairing not given here; also: displayed as fusion to phage pIII, linker not given here) [Phage-1084] | 0.07 | 1.36 | – | –
11 | YCEGHLEIYLAKCL (Tested as clonal phage supernatant; not shown: pIII coat protein of the bacteriophage to which the peptide is fused) [Phage-1105 (Peptide-87 library clone, SEQ ID NO: 1421)] | – | – | 1.32 | 0.07
12 | YCDGHSETYLWKCL (cysteine pairing not given here; also: displayed as fusion to phage pIII, linker not given here) [Phage-1081] | 0.1 | 1.37 | – | –
13 | YCEGHLPEYMIKCL (Tested as clonal phage supernatant; not shown: pIII coat protein of the bacteriophage to which the peptide is fused) [Phage-1108 (Peptide-87 library clone, SEQ ID NO: 1424)] | – | – | 1.32 | 0.06
14 | YCEGHLDEYLQKCL (cysteine pairing not given here; also: displayed as fusion to phage pIII, linker not given here) [Phage-1076] | 0.07 | 1.38 | – | –
15 | YCDGHLSEYIGKCL (cysteine pairing not given here; also: displayed as fusion to phage pIII, linker not given here) [Phage-1079] | 0.06 | 1.37 | – | –
16 | YCEGHLPEYMIKCI (cysteine pairing not given here; also: displayed as fusion to phage pIII, linker not given here) [Phage-1083] | 0.1 | 1.36 | – | –
17 | YCAGHLPMYMQKCL (Tested as clonal phage supernatant; not shown: pIII coat protein of the bacteriophage to which the peptide is fused) [Phage-1103 (Peptide-87 library clone, SEQ ID NO: 1419)] | – | – | 1.33 | 0.08
18 | YCEGHLPMYMQKCL (Tested as clonal phage supernatant; not shown: pIII coat protein of the bacteriophage to which the peptide is fused) [Phage-1110 (Peptide-87 library clone, SEQ ID NO: 1426)] | – | – | 1.31 | 0.08
19 | YCDGHTAEFIGKCL (Tested as clonal phage supernatant; not shown: pIII coat protein of the bacteriophage to which the peptide is fused) [Phage-1106 (Peptide-87 library clone, SEQ ID NO: 1422)] | – | – | 1.32 | 0.06
20 | YCDGHQPQYMSKCL (cysteine pairing not given here; also: displayed as fusion to phage pIII, linker not given here) [Phage-1078] | 0.09 | 1.38 | – | –
21 | YCDGHVKEYMYKCL (cysteine pairing not given here; also: displayed as fusion to phage pIII, linker not given here) [Phage-1086] | 0.06 | 1.36 | – | –
22 | YCAGHALEYMGKCL (Tested as clonal phage supernatant; not shown: pIII coat protein of the bacteriophage to which the peptide is fused) [Phage-1107 (Peptide-87 library clone, SEQ ID NO: 1423)] | – | – | 1.32 | 0.06
23 | YCDGHLPLYMQKCF (Tested as clonal phage supernatant; not shown: pIII coat protein of the bacteriophage to which the peptide is fused) [Phage-1102 (Peptide-87 library clone, SEQ ID NO: 1418)] | – | – | 1.33 | 0.1
24 | YCEGHSAVYMSKCL (Tested as clonal phage supernatant; not shown: pIII coat protein of the bacteriophage to which the peptide is fused) [Phage-1113 (Peptide-87 library clone, SEQ ID NO: 1429)] | – | – | 1.31 | 0.06
25 | YCDGHLSIYMTKCL (cysteine pairing not given here; also: displayed as fusion to phage pIII, linker not given here) [Phage-1088] | 0.07 | 1.36 | – | –
26 | YCDGHIPEYMTKCL (Tested as clonal phage supernatant; not shown: pIII coat protein of the bacteriophage to which the peptide is fused) [Phage-1111 (Peptide-87 library clone, SEQ ID NO: 1427)] | – | – | 1.31 | 0.06
